The chains are these.
B1: Twister Ribozyme (parent)
chain: AACACUGCCAAUGCCGGUCCCAAGCCCGGAUAAAAGUGGAGGGGGCGG

This series covers variants of B1. Put plainly: self-cleavage, relative activity (ratio to wild type); higher = more cleavage; co-transcriptional.
Regarding C27U A33C, the self-cleavage was determined as 0.764. The figure for A30G A32U is 0.962. As to A30G A32G, the self-cleavage came out at 1.02. As for C27G U31A, the figure is 0.099; as for C27G U31G, 0.0669. The figure for G28A C46U is 0.918; for U31A G43C it is 0.168; for U31A G43A it is 0.23. The figure for G29U G36A is 0.481; for G29C U31C it is 0.999; for G29U A32U it is 0.911.

With G29U A32G, the self-cleavage was found to be 0.781. As for U31A G41A, the figure is 0.452; as for U31A G41C, 0.266.

With A30G G44A, the self-cleavage worked out at 0.85.

As for C27G G39C, the self-cleavage is 0.105. As for C27G G48C, the figure is 0.147; as for C27G G48A, 0.102. The figure for G29U G41U is 0.521; for G29U G41A it is 0.422. The figure for A30C G47C is 0.17. Consider G28C G45A, for which the self-cleavage was 0.552. As for A30G U31C, the figure is 0.988; as for G28C A33U, 0.556. The figure for G29U G38C is 0.778; for G29U G38A it is 0.775. The figure for C27G G36C is 0.0945; for A30U A40G it is 0.165; for A30U A40C it is 0.2. For the variant A30U A40U, the self-cleavage amounted to 0.152. Take G28U G38U: the self-cleavage was 0.766. As for A30C G44A, the figure is 1.01; as for G29C A40C, 0.153; as for G29C A40U, 0.101. The figure for A30G G38U is 0.771. Regarding G29C G45C, the self-cleavage came out at 0.211. With C27U G44U, the self-cleavage was 0.774. The figure for G28A G44U is 0.874; for G28U A35C it is 0.888; for C27U G38C it is 0.644. Consider G28U U31C, for which the self-cleavage came out at 0.946.

With G28U U31A, the self-cleavage was found to be 0.881.

As for A30U G38U, the self-cleavage turned out to be 0.957.

Regarding A30U G38C, the self-cleavage worked out at 0.88.

With G29A G41C, the self-cleavage amounted to 0.22. The figure for G29A G41A is 0.452. The figure for C27A U31A is 0.676; for C27A U31G it is 0.629.

With G28A A40U, the self-cleavage was determined as 0.125. G28A A40C: the self-cleavage is 0.163. As for G28A A40G, the figure is 0.188. As for G28C A35G, the self-cleavage amounted to 0.596.

In the case of G28C A35U, the self-cleavage amounted to 0.806. The figure for G28C A35C is 0.912; for A30C G43A it is 0.187.

In the case of G29A A32G, the self-cleavage came out at 0.84.

On to C27G A32U, for which the self-cleavage is 0.115.

Consider C27G A32C, for which the self-cleavage is 0.137. The figure for C27U A34U is 0.567. As for C27U A34C, the figure is 0.0865. As for G28C G48C, the figure is 0.83; as for G28C G48U, 0.543. Regarding G28U G36U, the self-cleavage is 0.136. As for A30U G43C, the figure is 0.229; as for A30U G43U, 0.558. The figure for A30C G38A is 0.649; for A30C G38U it is 0.715; for U31A A33C it is 0.833. As for A30C A33G, the figure is 0.58. For the variant G28A G38C, the self-cleavage amounted to 0.691. For G28A G38U, the self-cleavage came out at 0.681.

In the case of G28A A33C, the self-cleavage is 0.873. As for A30G A35U, the figure is 0.782. The figure for A30G A35C is 0.792; for A30U G41A it is 0.621; for G29A U37C it is 0.444. The figure for C27G A34G is 0.124. In the case of C27G A34C, the self-cleavage stood at 0.0686. As for C27G A34U, the figure is 0.0972; as for C27U G45A, 0.819; as for C27U G45C, 0.354. For the variant A30G G39U, the self-cleavage is 0.191. The figure for A30G G39A is 0.582; for A30G G39C it is 0.159; for G28C G47A it is 0.28.

Consider G28C G47U, for which the self-cleavage was determined as 0.378. As for A30G A40U, the figure is 0.0959; as for A30G A40C, 0.215. Regarding C27U G29C, the self-cleavage was 0.124. C27U G29A: the self-cleavage was determined as 0.687. As for C27U G29U, the figure is 0.441. The figure for U31A G39A is 0.343. The figure for U31A G39C is 0.151. As to G28U G42U, the self-cleavage was 0.238. As for G28U G42C, the figure is 0.407; as for G29A G45A, 0.724; as for G29A G45U, 0.578.

Regarding U31A A32G, the self-cleavage was found to be 0.985. The figure for G29A G42C is 0.46.

Consider G28A U37A, for which the self-cleavage turned out to be 0.465.

As for G28U C46U, the self-cleavage was found to be 0.922. The figure for G28A G43U is 0.326.

As to G28A G43A, the self-cleavage was determined as 0.191. As for G28A G43C, the figure is 0.163; as for G28C G38C, 0.531; as for G28C G38U, 0.64. The figure for G29C G44C is 0.696; for G29C G44A it is 0.791; for A30C A32G it is 0.821.

On to G28U A30U, for which the self-cleavage was found to be 0.985.

On to G28A G39C, for which the self-cleavage turned out to be 0.154.

As to G28A G39A, the self-cleavage came out at 0.326.

In the case of G29A G48U, the self-cleavage was 0.916. The figure for G29A G48C is 1.1. As for C27G C46G, the figure is 0.1; as for U31A G36C, 0.388. The figure for U31A G36U is 0.292; for U31A G36A it is 0.614; for G29A A34U it is 0.833.

Consider G29A A34C, for which the self-cleavage was determined as 0.282. On to A30C A40U, for which the self-cleavage was found to be 0.0909. As for A30C A40G, the figure is 0.189. The figure for A30C A40C is 0.103; for G29A A33C it is 0.768; for G29A A33U it is 0.759. Consider C27G G42U, for which the self-cleavage came out at 0.0711. As for C27U U37C, the self-cleavage was determined as 0.179. As for C27U U37G, the figure is 0.342; as for G29U A35U, 0.892. The figure for A30C G39A is 0.189. On to C27G A33C, for which the self-cleavage is 0.0584. The figure for C27G A33U is 0.0804. As for G28A G48C, the figure is 0.94; as for G28A G48U, 0.778; as for G29C A34U, 0.292. The figure for G28A A35G is 0.575; for G29C G48C it is 0.688. Consider G29C G48A, for which the self-cleavage turned out to be 0.56.

As to G28A G36U, the self-cleavage was found to be 0.15.

As for G28A G36A, the self-cleavage came out at 0.397. As for G29U A30C, the figure is 1.06; as for G29U A30U, 0.912. The figure for G29U G44A is 0.79; for G29U G44C it is 0.858.

G28A G41C: the self-cleavage was 0.177. The figure for G28A G41U is 0.397. For the variant G29C A35U, the self-cleavage came out at 0.885.

As for G29C A35G, the self-cleavage amounted to 0.544. As for G29C A35C, the figure is 0.701. The figure for C27G G38C is 0.0767; for C27G G38U it is 0.093. Consider C27G G38A, for which the self-cleavage amounted to 0.0803. As for G28U G41U, the figure is 0.419; as for C27A G48A, 0.275. C27A G48U: the self-cleavage was found to be 0.397. For the variant C27G G29C, the self-cleavage is 0.0656.

On to C27G G29A, for which the self-cleavage came out at 0.0827.

Turning to A30U G42C, the self-cleavage was 0.501.

Consider A30U G42U, for which the self-cleavage is 0.434.

In the case of A30U U31A, the self-cleavage came to 0.931. The figure for C27U A30U is 0.758. The figure for C27U A30G is 0.777; for A30C G48C it is 0.933; for A30C G48U it is 0.759.

Regarding A30U A34C, the self-cleavage stood at 0.17. The figure for A30U G48C is 1.07; for A30G G47C it is 0.534.

For the origin of these results see the RNAGym collection of RNA variant scans (doi:10.7554/elife.80360).
